From paper PMC3174058 (Biochemical Journal, 2011)
Values joined by “and” are separate entries in the source; they are usually repeats but may differ in a detail not shown here. Equal values may be shown once.

Columns and labels:
[1] = molecular target: Recombinant mouse SOUL; details: printed as range in words; ref [19] Sato et al., 2004; cited from earlier work
[2] = test system: 15N-labelled SOUL; test: 15N-1H HSQC NMR titration of 15N-labelled SOUL with haemin; assay type: binding, human; details: 0.5, 1, 2, 3 and 4 equivalents haemin, Tris/HCl buffer, 25 °C; more than 1 day of observation
[3] = UV–visible spectrum of haemin alone; assay type: physicochemical; details: 10 μM haemin; 20 mM Tris/HCl (pH 7.5), 0.15 M NaCl; 30 min, 25 °C
[4] = molecular target: human Bcl-xL lacking only the C-terminal transmembrane domain (after amino acid 209) (human, UniProt Q07817-1 1-209); test: NMR titration
Sequence of human Bcl-xL lacking only the C-terminal transmembrane domain (after amino acid 209) (Q07817 1-209): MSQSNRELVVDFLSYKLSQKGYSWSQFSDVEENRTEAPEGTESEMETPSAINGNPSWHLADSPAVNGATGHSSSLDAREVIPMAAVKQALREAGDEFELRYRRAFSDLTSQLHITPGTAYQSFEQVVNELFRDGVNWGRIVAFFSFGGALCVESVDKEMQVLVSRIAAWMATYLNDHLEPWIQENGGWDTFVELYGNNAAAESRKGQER

[5] = test system: caspase 8; test: caspase 8 cleavage experiment; assay type: biochemical; details: human BID as control; results not shown
[6] = test system: mitochondrial permeability transition / cell death; details: cited from earlier work

Molecule: C=CC1=C(C)c2cc3[n-]c(cc4[n-]c(cc5nc(cc1n2)C(C)=C5C=C)c(C)c4CCC(=O)O)c(CCC(=O)O)c3C.[Fe+2] [haem]
- dissociation constant for haem binding [1]: nanomolar range

Molecule: C=CC1=C(C)c2cc3[n-]c(cc4nc(cc5[n-]c(cc1n2)c(C)c5C=C)C(C)=C4CCC(=O)O)c(CCC(=O)O)c3C.[Cl-].[Fe+3] [haemin]
- change of SOUL HSQC spectrum with haemin [2]: the spectrum remained unaltered
- haemin absorption peak position, haemin alone [3]: 390 nM

B1: SOUL BH3 peptide (26-amino-acid-long peptide spanning residues 147–172 of human SOUL) (peptide)
peptide: SAQKNQEQLLTLASILREDGKVFDEK
- Kd [4]: 47.8 µM and 41.3 µM

B2: SOUL: human SOUL protein, recombinant, expressed in E. coli, histidine tag removed by thrombin (protein)
chain: MAEPLQPDPGAAEDAAAQAVETPGWKAPEDAGPQPGSYEIRHYGPAKWVSTSVESMDWDSAIQTGFTKLNSYIQGKNEKEMKIKMTAPVTSYVEPGSGPFSESTITISLYIPSEQQFDPPRPLESDVFIEDRAEMTVFVRSFDGFSSAQKNQEQLLTLASILREDGKVFDEKVYYTAGYNSPVKLLNRNNEVWLIQKNEPTKENE
modifications: left off: His tag, C-terminal, cleaved
- cleavage by caspase 8 [5]: is not a substrate of this enzyme
- effect of deletion of putative BH3 domain on apoptotic effects ([6]; human SOUL, BH3 domain deleted, ref [21] Szigeti et al., 2010): abolished the apoptotic effects of SOUL
- induction of MPT ([6]; leads to mitochondrial swelling and cell death, ref [20] Szigeti et al., 2006): can induce the MPT
